From paper PMC6203859, “Non-catalytic signaling by pseudokinase ILK for regulating cell adhesion” (Nature Communications, 2018)
Positions count from the first letter of the chain named. Names and notes keep the numbering of the source. Values belong to the binder of their own block, whether it stands above or below them.

Experiments:
[1] = biological target: full-length human ILK (C346S; C422S), subunit of the coexpressed IPP complex (human, UniProt Q13418 1-452, C346S | C422S); test: SEC; purified IPP complex (coexpressed in E. coli, co-purified by Ni affinity on His6-PINCH-1) on Superose 6 10/300 GL; conditions: both partners purified
[2] = biological target: F-actin (rabbit skeletal muscle actin, polymerised) (rabbit, UniProt P68135 1-377); test: co-sedimentation; F-actin co-sedimentation: rabbit skeletal muscle actin polymerized with 50 mM KCl, 2 mM MgCl2, 1 mM ATP; test protein added in F-actin buffer (with 5% glycerol or no glycerol), 30 min room temperature; 150,000xg, 4 °C, 1 h; SDS-PAGE, Coomassie, densitometry; KD by curve fitting; conditions: both partners purified

Sequence of full-length human ILK (C346S; C422S), subunit of the coexpressed IPP complex (Q13418 whole entry C346S/C422S, one chain of several): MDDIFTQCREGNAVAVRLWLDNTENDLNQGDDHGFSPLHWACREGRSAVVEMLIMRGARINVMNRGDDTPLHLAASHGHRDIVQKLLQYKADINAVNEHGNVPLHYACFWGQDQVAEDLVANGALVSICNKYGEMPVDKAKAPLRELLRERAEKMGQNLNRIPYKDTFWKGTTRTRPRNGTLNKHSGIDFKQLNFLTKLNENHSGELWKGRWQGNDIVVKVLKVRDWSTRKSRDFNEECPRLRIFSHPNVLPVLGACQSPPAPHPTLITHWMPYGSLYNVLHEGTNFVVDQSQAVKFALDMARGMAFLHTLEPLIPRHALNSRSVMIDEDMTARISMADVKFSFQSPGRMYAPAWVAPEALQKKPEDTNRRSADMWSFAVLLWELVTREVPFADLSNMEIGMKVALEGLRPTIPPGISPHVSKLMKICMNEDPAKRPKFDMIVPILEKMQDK

binding result [1]: binds
B1: full-length human α-Parvin, subunit of the coexpressed IPP complex (natural protein, UniProt Q9NVD7 1-372, looked up)
chain: MATSPQKSPSVPKSPTPKSPPSRKKDDSFLGKLGGTLARRKKAKEVSELQEEGMNAINLPLSPIPFELDPEDTMLEENEVRTMVDPNSRSDPKLQELMKVLIDWINDVLVGERIIVKDLAEDLYDGQVLQKLFEKLESEKLNVAEVTQSEIAQKQKLQTVLEKINETLKLPPRSIKWNVDSVHAKSLVAILHLLVALSQYFRAPIRLPDHVSIQVVVVQKREGILQSRQIQEEITGNTEALSGRHERDAFDTLFDHAPDKLNVVKKTLITFVNKHLNKLNLEVTELETQFADGVYLVLLMGLLEGYFVPLHSFFLTPDSFEQKVLNVSFAFELMQDGGLEKPKPRPEDIVNCDLKSTLRVLYNLFTKYRNVE

Kd [2]: ~21 µM
B2: α-Parvin-N (N-terminal region 1–91) as used in F-actin co-sedimentation (domain or fragment)
chain: MATSPQKSPSVPKSPTPKSPPSRKKDDSFLGKLGGTLARRKKAKEVSELQEEGMNAINLPLSPIPFELDPEDTMLEENEVRTMVDPNSRSD
notes: α-Parvin, human, N-terminal region; the text defines α-Parvin-N as 1-91; the methods list a GST-fused 1-89 and a hexahistidine-tagged 1-91 form; also called WT α-Parvin; source: E. coli, purified

Kd [2]: ~49 µM
B3: α-Parvin-N 5A (L37A/R39A/R40A/K41A/K42A) as used in F-actin co-sedimentation (domain or fragment)
chain: B2 chain with L37A, R39A, R40A, K41A, K42A
notes: α-Parvin, human, N-terminal domain, residues 1-91 (both the GST-fused and the His6-tagged 5A forms are 1-91); source: E. coli, purified
